The record followed here is US20210187106A1 (AstraZeneca / MedImmune, published 2021).

To fix the notation:
B1: human Leukemia Inhibitory Factor (LIF), expression source not stated (ligand)
chain: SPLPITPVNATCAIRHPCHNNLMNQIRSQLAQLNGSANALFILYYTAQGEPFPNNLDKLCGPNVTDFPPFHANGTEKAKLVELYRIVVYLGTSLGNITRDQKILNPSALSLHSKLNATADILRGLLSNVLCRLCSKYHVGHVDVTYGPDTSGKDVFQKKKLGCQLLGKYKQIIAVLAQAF
notes: also called hLIF; human LIF

In one test the target is T1, recombinant human gp130 (human, UniProt P40189 23-619, limits assumed).
T1 sequence (looked up): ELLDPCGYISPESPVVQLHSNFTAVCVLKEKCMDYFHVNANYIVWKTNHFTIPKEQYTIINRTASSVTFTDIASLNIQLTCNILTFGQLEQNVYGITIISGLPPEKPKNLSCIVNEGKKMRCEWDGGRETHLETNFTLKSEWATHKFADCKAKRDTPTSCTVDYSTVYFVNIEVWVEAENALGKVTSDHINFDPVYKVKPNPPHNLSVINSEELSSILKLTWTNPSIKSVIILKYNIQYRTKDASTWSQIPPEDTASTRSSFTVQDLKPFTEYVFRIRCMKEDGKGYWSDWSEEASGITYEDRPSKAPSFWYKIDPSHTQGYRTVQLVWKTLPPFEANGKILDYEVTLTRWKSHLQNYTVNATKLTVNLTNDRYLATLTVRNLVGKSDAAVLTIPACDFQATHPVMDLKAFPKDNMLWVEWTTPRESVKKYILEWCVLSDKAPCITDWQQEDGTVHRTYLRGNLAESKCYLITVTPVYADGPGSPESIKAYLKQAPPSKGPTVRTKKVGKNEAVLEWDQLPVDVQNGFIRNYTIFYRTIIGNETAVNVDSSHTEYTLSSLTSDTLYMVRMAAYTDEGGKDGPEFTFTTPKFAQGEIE
Kind of test: ELISA, LIF pre-incubated with B09 and added to a plate coated with recombinant human gp130; the antibody part of the complex detected with peroxidase anti-rat IgG.

Test [1] concerns the target B1. Kind of test: cell-based or functional assay.
The target in test [2] is T2, recombinant human LIF receptor (hLIFR) (human, UniProt P42702 45-833, limits assumed).
T2 sequence (looked up): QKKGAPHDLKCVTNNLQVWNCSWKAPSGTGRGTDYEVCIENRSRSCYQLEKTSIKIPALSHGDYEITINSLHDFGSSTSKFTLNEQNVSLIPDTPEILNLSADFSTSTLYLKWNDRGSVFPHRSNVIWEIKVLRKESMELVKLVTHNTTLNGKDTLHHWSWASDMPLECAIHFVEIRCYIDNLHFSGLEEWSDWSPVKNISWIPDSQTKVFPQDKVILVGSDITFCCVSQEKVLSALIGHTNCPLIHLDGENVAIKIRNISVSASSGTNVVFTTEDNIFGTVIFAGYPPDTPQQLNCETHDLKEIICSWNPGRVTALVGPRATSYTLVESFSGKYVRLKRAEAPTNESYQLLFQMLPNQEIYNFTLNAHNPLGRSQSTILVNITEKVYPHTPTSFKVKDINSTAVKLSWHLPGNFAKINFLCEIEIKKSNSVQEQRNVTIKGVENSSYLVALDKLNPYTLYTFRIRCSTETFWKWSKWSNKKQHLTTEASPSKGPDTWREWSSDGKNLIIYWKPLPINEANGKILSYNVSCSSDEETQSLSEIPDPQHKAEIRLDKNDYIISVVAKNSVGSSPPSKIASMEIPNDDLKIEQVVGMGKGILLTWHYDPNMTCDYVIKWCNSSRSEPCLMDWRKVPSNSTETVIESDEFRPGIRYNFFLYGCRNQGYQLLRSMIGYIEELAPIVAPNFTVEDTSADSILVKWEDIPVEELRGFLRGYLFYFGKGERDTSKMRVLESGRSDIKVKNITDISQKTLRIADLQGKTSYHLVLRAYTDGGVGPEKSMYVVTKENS
As to the kind of experiment: Octet RED96 control experiment, h5D8 captured on AHC biosensors.
From the text: Subsequently, the biosensors were dipped in different concentrations of LIFR.

The target of another test is T3, human IL-6 (E. coli) (human, UniProt P05231 30-212, limits assumed).
T3 construct: also called huIL-6 (E. coli)
Kind of test: BLI (Octet), h5D8 amine-coupled to AR2G biosensors, cytokine as analyte; table legend: ND = no binding.

T3 sequence (P05231 30-212 limits assumed): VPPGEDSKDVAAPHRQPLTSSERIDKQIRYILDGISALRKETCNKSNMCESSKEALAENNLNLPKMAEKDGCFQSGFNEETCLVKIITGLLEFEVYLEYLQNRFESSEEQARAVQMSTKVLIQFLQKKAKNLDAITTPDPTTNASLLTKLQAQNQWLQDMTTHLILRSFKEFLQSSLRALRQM
Method for human IL-6 (E. coli): Kinetics experiments were then performed with the following Dip and Read steps at 30° C., 1000rpm: vi) 60 seconds Baseline in 1× kinetics buffer; vii) 180 seconds Association of appropriate serial dilutions of a cytokine in 1× kinetics buffer; viii) 300 seconds Dissociation in 1× kinetics buffer; ix) Three Regeneration/Neutralization cycles alternating between 10 mM glycine pH 2.0 and 1× kinetics buffer respectively (5 seconds in each for 3 cycles). Following regeneration, the biosensors were reused for subsequent binding analyses.

With B1, the binding result with recombinant human gp130 is listed as “binds”.

B2: h5D8 (humanized 5D8, H2L2 clone) (antibody, V domains shown)
VH: QVQLQESGGGLVKPGGSLRLSCAASGFTFSHAWMHWVRQAPGKGLEWVGQIKAKSDDYATYYAESVKGRFTISRDDSKNTLYLQMNSLKTEDTAVYYCTCWEWDLDFWGQGTMVTVSS
VL: DIVMTQTPLSSPVTLGQPASISCRSSQSLLDSDGHTYLNWLQQRPGQPPRLLIYSVSNLESGVPDRFSGSGAGTDFTLKISRVEAEDVGVYYCMQATHAPPYTFGQGTKLEIK
notes: Humanized IgG tested as a bivalent antibody; Only VH and VL are tied to h5D8 by name; also called G (H2L2); H5D8-1 IgG
On to B2, for which the “IC50 for biological inhibition (pSTAT3, MSD assay) under serum starved conditions in U-251 cells” value in test [1] turned out to be 490 picomolar. For the same molecule, the binding result (in test [2]; in the test with human IL-6 (E. coli)) was “no binding” throughout.
